From the supplement of paper PMC10567573

B1: CDC25A (parent)
chain: QLIDPDENKENEAFEFKKPVRPVS

Variants of: B1
Test: protein stability index of a GFP-peptide fusion (GPS, HEK-293T) (PSI 1-6); higher = more stable
Details: c terminus: a fixed tail appended
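Further: lentivirally expressed fusions sorted by FACS into six bins by GFP to DsRed ratio, PSI derived from sequencing read proportions per bin multiplied by bin number.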

| Variant | protein stability index |
| --- | --- |
| QLIDPDENKENEAFEFWKPVRPVS [K17W] | 3.43 |
| QLIDPDENKENEAFEFIKPVRPVS [K17I] | 3.54 |
| QLIDPDENKENEAFEFHKPVRPVS [K17H] | 3.84 |
| QLIDPDENKENEAFEFMKPVRPVS [K17M] | 3.03 |
| QLIDPDENKENEAFEFTKPVRPVS [K17T] | 3.58 |
| QLIDPDENKENEAFEFSKPVRPVS [K17S] | 3.48 |
| QLIDPDENKENEAFEFRKPVRPVS [K17R] | 3.78 |
| QLIDPDENKENEAFEFLKPVRPVS [K17L] | 3.36 |
| QLIDPDENKENEAFEFYKPVRPVS [K17Y] | 3.7 |
| QLIDPDENKENEAFEFFKPVRPVS [K17F] | 3.88 |
| QLIDPDENKENEAFEFVKPVRPVS [K17V] | 3.98 |
| QLIDPDENKENEAFEFNKPVRPVS [K17N] | 3.15 |
| QLIDPDENKENEAFEFPKPVRPVS [K17P] | 4.27 |
| QLIDPDENKENEAFEFGKPVRPVS [K17G] | 3.91 |
| QLIDPDENKENEAFEFQKPVRPVS [K17Q] | 4.03 |
| QLIDPDENKENEAFEFKKPVVPVS [R21V] | 3.19 |
| QLIDPDENKENEAFEFKKPVTPVS [R21T] | 4.04 |
| QLIDPDENKENEAFEFKKPVWPVS [R21W] | 3.28 |
| QLIDPDENKENEAFEFKKPVKPVS [R21K] | 4.04 |
| QLIDPDENKENEAFEFKKPVEPVS [R21E] | 4.33 |
| QLIDPDENKENEAFEFKKPVQPVS [R21Q] | 4.67 |
| QLIDPDENKENEAFEFKKPVNPVS [R21N] | 5 |
| QLIDPDENKENEAFEFKKPVLPVS [R21L] | 3.8 |
| QLIDPDENKENEAFEFKKPVIPVS [R21I] | 3.39 |

| Variant | protein stability index |
| --- | --- |
| QLIDPDENKENEAFEFKKPVDPVS [R21D] | 4.25 |
| QLIDPDENKENEAFEFKKPVPPVS [R21P] | 4.46 |
| QLIDPDENKENEAFEFKKPVHPVS [R21H] | 3.85 |
| QLIDPDENKENEAFEFKKPVMPVS [R21M] | 3.81 |
| QLIDPDENKENEAFEFKKPVGPVS [R21G] | 4.97 |
| QLIDPDENKENEAFEFKKPVCPVS [R21C] | 4.34 |
| QLIDPDENKENEAFEFKKPVAPVS [R21A] | 3.27 |
| QLIDPDENKENEAFEFKKPVFPVS [R21F] | 2.74 |
| QLIDPDENKENEAFEFKKPCRPVS [V20C] | 3.61 |
| QLIDPDENKENEAFEFKKPARPVS [V20A] | 4.09 |
| QLIDPDENKENEAFEFKKPLRPVS [V20L] | 2.85 |
| QLIDPDENKENEAFEFKKPDRPVS [V20D] | 4.31 |
| QLIDPDENKENEAFEFKKPRRPVS [V20R] | 3.73 |
| QLIDPDENKENEAFEFKKPSRPVS [V20S] | 4 |
| QLIDPDENKENEAFEFKKPPRPVS [V20P] | 4.43 |
| QLIDPDENKENEAFEFKKPERPVS [V20E] | 4.04 |
| QLIDPDENKENEAFEFKKPFRPVS [V20F] | 3.71 |
| QLIDPDENKENEAFEFKKPNRPVS [V20N] | 4.63 |
| QLIDPDENKENEAFEFKKPIRPVS [V20I] | 4 |
| QLIDPDENKENEAFEFKKPHRPVS [V20H] | 4.3 |
| QLIDPDENKENEAFEFKKPQRPVS [V20Q] | 3.79 |
| QLIDPDENKENEAFEFKKPGRPVS [V20G] | 3.97 |
| QLIDPDENKENEAFEFKKPMRPVS [V20M] | 3.82 |
| QLIDPDENKENEAFEFKKPWRPVS [V20W] | 3.59 |

| Variant | protein stability index |
| --- | --- |
| QLIDPDENKENEAFEFKKPKRPVS [V20K] | 4.67 |
| QLIDPDENKENEAFEFKKPTRPVS [V20T] | 4.54 |
| QLIDPDENKENEAFEFKKPVRPVR [S24R] | 3.58 |
| QLIDPDENKENEAFEFKKPVRPVG [S24G] | 3.54 |
| QLIDPDENKENEAFEFKKPVRPVV [S24V] | 3.76 |
| QLIDPDENKENEAFEFKKPVRPVF [S24F] | 3.88 |
| QLIDPDENKENEAFEFKKPVRPVY [S24Y] | 3.73 |
| QLIDPDENKENEAFEFKKPVRPVK [S24K] | 4.72 |
| QLIDPDENKENEAFEFKKPVRPVE [S24E] | 4.67 |
| QLIDPDENKENEAFEFKKPVRPVA [S24A] | 4.16 |
| QLIDPDENKENEAFEFKKPVRPVH [S24H] | 2.87 |
| QLIDPDENKENEAFEFKKPVRPVP [S24P] | 4.33 |
| QLIDPDENKENEAFEFKKPVRPVM [S24M] | 3.49 |
| QLIDPDENKENEAFEFKKPVRPVL [S24L] | 3.21 |
| QLIDPDENKENEAFEFKKPVRPVD [S24D] | 5.24 |
| QLIDPDENKENEAFEFKKPVRPVC [S24C] | 3.5 |
| QLIDPDENKENEAFEFKKPVRPVW [S24W] | 3.3 |
| QLIDPDENKENEAFEFKKPVRPVQ [S24Q] | 4.25 |
| QLIDPDENKENEAFEFKKPVRPVN [S24N] | 3.34 |
| QLIDPDENKENEAFEFKKPVRPNS [V23N] | 3.51 |
| QLIDPDENKENEAFEFKKPVRPES [V23E] | 4.1 |
| QLIDPDENKENEAFEFKKPVRPAS [V23A] | 4.32 |
| QLIDPDENKENEAFEFKKPVRPKS [V23K] | 3.85 |
| QLIDPDENKENEAFEFKKPVRPFS [V23F] | 3.89 |

| Variant | protein stability index |
| --- | --- |
| QLIDPDENKENEAFEFKKPVRPGS [V23G] | 4.05 |
| QLIDPDENKENEAFEFKKPVRPPS [V23P] | 3.52 |
| QLIDPDENKENEAFEFKKPVRPRS [V23R] | 3.11 |
| QLIDPDENKENEAFEFKKPVRPCS [V23C] | 3.9 |
| QLIDPDENKENEAFEFKKPVRPDS [V23D] | 4.41 |
| QLIDPDENKENEAFEFKKPVRPYS [V23Y] | 3.32 |
| QLIDPDENKENEAFEFKKPVRPMS [V23M] | 2.46 |
| QLIDPDENKENEAFEFKKPVRPQS [V23Q] | 4.04 |
| QLIDPDENKENEAFEFKKPVRPIS [V23I] | 3.43 |
| QLIDPDENKENEAFEFKKPVRPHS [V23H] | 4.05 |
| QLIDPDENKENEAFEFKKPVRPSS [V23S] | 3.09 |
| QLIDPDENKENEAFEFKYPVRPVS [K18Y] | 4 |
| QLIDPDENKENEAFEFKHPVRPVS [K18H] | 3.82 |
| QLIDPDENKENEAFEFKCPVRPVS [K18C] | 4.1 |
| QLIDPDENKENEAFEFKDPVRPVS [K18D] | 4.47 |
| QLIDPDENKENEAFEFKVPVRPVS [K18V] | 4.23 |
| QLIDPDENKENEAFEFKEPVRPVS [K18E] | 5.52 |
| QLIDPDENKENEAFEFKFPVRPVS [K18F] | 4.33 |
| QLIDPDENKENEAFEFKTPVRPVS [K18T] | 4.33 |
| QLIDPDENKENEAFEFKSPVRPVS [K18S] | 4.55 |
| QLIDPDENKENEAFEFKNPVRPVS [K18N] | 4.4 |
| QLIDPDENKENEAFEFKMPVRPVS [K18M] | 3.66 |
